According to paper PMC11993666 (Nature Communications, 2025):

B1: ChiLob7/4 hIgG2 C232S κC214S (cross-over) (antibody, V domains shown)
VH: EVQLQQSGPDLVKPGASVKISCKTSGYTFTEYIMHWVKQSHGKSLEWIGGIIPNNGGTSYNQKFKDKATMTVDKSSSTGYMELRSLTSEDSAVYYCTRREVYGRNYYALDYWGQGTLVTVSS
VL: DIQMTQTTSSLSASLGDRVTITCSASQGINNYLNWYQQKPDGTVKLLIYYTSSLHSGVPSRFSGSGSGTDYSLTISNLEPEDIATYYCQQYSNLPYTFGGGTKLEIK
B2: ChiLob7/4 hIgG2 C232S + K228C κC214S (cross-over + K228C) (antibody, V domains shown)
VH: B1 VH
VL: B1 VL
B3: ChiLob7/4 hIgG2 C232S + T222C κE123C + κC214S (cross-over + T222C κE123C) (antibody, V domains shown)
VH: B1 VH
VL: B1 VL

Assays:
[1] = molecular target: hCD40 (as used in SPR) (human) (UniProt P25942); assay: SPR
hCD40 (as used in SPR) (human), sequence (P25942 21-277): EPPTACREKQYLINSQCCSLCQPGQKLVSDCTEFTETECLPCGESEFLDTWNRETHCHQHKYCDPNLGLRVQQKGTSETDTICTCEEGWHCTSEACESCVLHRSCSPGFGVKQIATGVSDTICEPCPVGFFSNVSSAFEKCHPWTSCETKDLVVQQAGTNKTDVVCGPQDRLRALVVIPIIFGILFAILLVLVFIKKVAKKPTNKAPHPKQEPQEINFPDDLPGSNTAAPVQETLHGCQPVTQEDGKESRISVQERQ

[2] = molecular target: hCD40 expressed on Jurkat cells (human, UniProt P25942); assay: cell-based or functional assay
hCD40 expressed on Jurkat cells, sequence (P25942 21-277): as above

| Kd [1] | koff [1] | EC50 of NF-κB activation (percentage of GFP+ cells, flow cytometry, 24 h) in NF-κB/Jurkat/GFP reporter cells expressing hCD40 [2] | Molecule |
| --- | --- | --- | --- |
| 1.97 nM | 0.000164 s⁻¹ | – | ChiLob7/4 hIgG2 wild type (from UniProt P01859) |
| – | – | 4.59 ng/mL | B1 |
| – | – | 1.55 ng/mL | B2 |
| – | – | 1.55 ng/mL | B3 |
